Tests used:
[1] = target: modified BID with an HCV NS3 cleavage site (human) (UniProt P55957); assay: cell-based or functional assay
[2] = target: Mod.Caspase 3/172(NS5A/B) (human) (UniProt P42574); assay: cell-based or functional assay

| Substance | cell death, FACS analysis of living EGFP positive CHOP cells, (+) NS3 Protease [1] [% cell death] | cell death, FACS analysis of living EGFP positive CHOP cells, (+) NS3 Protease [2] [% cell death] | AnnexinV positive H9C2 cells, FACS, 24 hours (% more cells than control) [1] | AnnexinV positive H9C2 cells, FACS, 24 hours, no VAD-fmk [1] [%] |
| --- | --- | --- | --- | --- |
| HCV NS3/NS4A protease (from UniProt P27958 1027-1657; P27958 1658-1711) (enzyme) | > 30 | > 30 | – | – |
| single-chain HCV protease (NS4A-NS3) (from UniProt P27958 1678-1689; P27958 1029-1207) (enzyme) | – | – | 50 | 60 |
